Laboratory results as given in patent US20130225503A1, “TEX14 PEPTIDES AS NOVEL ANTITUMOR AGENTS” (Baylor Licnensing Group, priority 2009, published 2013).

B2: full-length mouse CEP55 (other, UniProt Q8BT07 1-462, looked up)
chain: MSSRSPKDLIKSKWGSRPSSSKSDTALEKFKGEIAAFKTSLDEITSGKGKMAEKGRSRLLEKIQVLEAEREKNVYYLLEKDKEIQRLKDHLRSRYSSSSLFEQLEEKTKECEKKQQLLESLSKETDVLKNQLSATTKRLSELESKASTLHLSQSMPANCFNSSMNSIHEKEMQLKDALEKNQQWLVYDQQREAYVKGLLAKIFELEKRTETAAASLTQQMKKIESEGYLQVEKQKYDHLLENAKKDLEVERQAVTQLRLELDEFRRKYEEARKEVEDLNQLLSSQRKADIQHLEEDKQKTERIQKLREESSIFKGKLEEERKRSEELLSQVRILYDSLLKHQEEQARVALLEQQMQACTLDFENEKLDRQNMQHQLYVILKELRKAKSQITQLESLKQLHGFTITEQPFPLQREPESRVKATSPKSPSAALNDSLVECPKCSVQYPATEHRDLLVHVEYCMK
notes: whole, on cells; Yeast two-hybrid fusion with a GAL4 domain (pGBKT7 or pGADT7)

How the values were obtained:
[1] = biological target: T1, TX-CEP interaction (Homo sapiens, UniProt Q53EZ4); experiment: Competition assay using the mammalian two-hybrid system, TX-CEP55 interaction; format: cell-based; settings: pcDNA3 overexpression in HEK293T cells; FIG. 6C, FIG. 7 right
T1 construct: expressed in transfected cells; host or cells: HEK293T
T1 sequence (Q53EZ4 157-236 limits assumed): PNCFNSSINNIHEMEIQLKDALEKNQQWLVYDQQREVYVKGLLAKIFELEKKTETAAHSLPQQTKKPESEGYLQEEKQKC
Source text: A modified form of the CheckMate/Flexi vector mammalian two-hybrid system (Promega) was used to study the interactions of proteins in mammalian cells. A pGL4Cherry (mCherry/GAL4UAS/Hygro) vector was engineered from the pGL4.31 (luc2P/GAL4UAS/Hygro) vector by replacing the Luc2P firefly luciferase reporter sequence with the mCherry sequence. The pACT vector expresses a protein of interest, “X,” fused to a transcriptional activation domain (VP16-AD) and the pBIND vector expresses the other protein of interest, “Y,” fused to a DNA-binding domain (GAL4-BD) and Renilla luciferase by separate promoters. […]
Sequences encoding the truncated TEX14, CEP55, ALIX, or TSG101 fragments were cloned into the multiple cloning regions of the pACT and pBIND vectors. Some exemplary constructs used are summarized in FIGS. 6A and B. pACT (protein X), pBIND (protein Y), and pGL4Cherry (mCherry/GAL4UAS/Hygro) were transiently cotransfected into HEK293T cells using Fugene 6/HD transfection reagent, and the cells were examined 44 h later for red fluorescence by using an Axiovert 40 CFL microscope (Carl Zeiss). […] The cells were lysed by using Renilla luciferase assay reagent (Promega), and red fluorescence and Renilla luciferase were measured by using a Polar Star Omega microplate reader (BMG LabTech). […]

[2] = biological target: B2; experiment: yeast two-hybrid
Procedure: (§1) Protein-protein interactions were evaluated by using the Matchmaker Two-Hybrid System 3 (Clontech) as described previously (10). Mouse full-length TEX14 and MLKP1 were previously subcloned into the Matchmaker GAL4 two-hybrid pGBKT7 and pGADT7 vectors (10). The constructs of full-length mouse and human CEP55, human TEX14, truncated mouse CEP55-C1, and truncated mouse TEX14-T1, T2, T1[…]T2, T3, T4, and T4-C were made by using the Matchmaker GAL4 two-hybrid pGBKT7 bait vector and pGADT7 prey vectors. Some Y2H interactions were examined with an oxygen biosensor assay (Clontech PT3584-1) that measured the fluorescence emitted by an oxygen-sensing platform that detects GAL4.
To determine the relevance of this GPPX3Y motif as it relates to the interaction of TEX14 with CEP55, we performed yeast two-hybrid assays with mouse TEX14 amino acids 756 to 815 that contain the GPPX3Y motif (FIG. 3A). These 60 amino acids interacted with full-length CEP55 (FIGS. 3B and C). Conversely, an 80-amino-acid fragment of CEP55 (C1) that contains the hinge region interacted with full-length TEX14, the C terminus (T3), and GPPX3Y-containing fragment (T4) but not a shorter sequence that lacked the GPPX3Y motif (T4-C) (FIG. 3A to C). Thus, similar GPPX3Y-containing regions of TEX14, ALIX, and TSG101 interact with the hinge region of CEP55.

[3] = biological target: T2, full-length mouse TEX14 (mouse, UniProt Q7M6U3 1-1450); experiment: yeast two-hybrid, full-length proteins, oxygen biosensor and selection plates
T2 construct: whole, on cells; In the yeast two-hybrid assay it stood as a fusion with a GAL4 domain (pGBKT7 bait or pGADT7 prey vector)
T2 sequence (looked up): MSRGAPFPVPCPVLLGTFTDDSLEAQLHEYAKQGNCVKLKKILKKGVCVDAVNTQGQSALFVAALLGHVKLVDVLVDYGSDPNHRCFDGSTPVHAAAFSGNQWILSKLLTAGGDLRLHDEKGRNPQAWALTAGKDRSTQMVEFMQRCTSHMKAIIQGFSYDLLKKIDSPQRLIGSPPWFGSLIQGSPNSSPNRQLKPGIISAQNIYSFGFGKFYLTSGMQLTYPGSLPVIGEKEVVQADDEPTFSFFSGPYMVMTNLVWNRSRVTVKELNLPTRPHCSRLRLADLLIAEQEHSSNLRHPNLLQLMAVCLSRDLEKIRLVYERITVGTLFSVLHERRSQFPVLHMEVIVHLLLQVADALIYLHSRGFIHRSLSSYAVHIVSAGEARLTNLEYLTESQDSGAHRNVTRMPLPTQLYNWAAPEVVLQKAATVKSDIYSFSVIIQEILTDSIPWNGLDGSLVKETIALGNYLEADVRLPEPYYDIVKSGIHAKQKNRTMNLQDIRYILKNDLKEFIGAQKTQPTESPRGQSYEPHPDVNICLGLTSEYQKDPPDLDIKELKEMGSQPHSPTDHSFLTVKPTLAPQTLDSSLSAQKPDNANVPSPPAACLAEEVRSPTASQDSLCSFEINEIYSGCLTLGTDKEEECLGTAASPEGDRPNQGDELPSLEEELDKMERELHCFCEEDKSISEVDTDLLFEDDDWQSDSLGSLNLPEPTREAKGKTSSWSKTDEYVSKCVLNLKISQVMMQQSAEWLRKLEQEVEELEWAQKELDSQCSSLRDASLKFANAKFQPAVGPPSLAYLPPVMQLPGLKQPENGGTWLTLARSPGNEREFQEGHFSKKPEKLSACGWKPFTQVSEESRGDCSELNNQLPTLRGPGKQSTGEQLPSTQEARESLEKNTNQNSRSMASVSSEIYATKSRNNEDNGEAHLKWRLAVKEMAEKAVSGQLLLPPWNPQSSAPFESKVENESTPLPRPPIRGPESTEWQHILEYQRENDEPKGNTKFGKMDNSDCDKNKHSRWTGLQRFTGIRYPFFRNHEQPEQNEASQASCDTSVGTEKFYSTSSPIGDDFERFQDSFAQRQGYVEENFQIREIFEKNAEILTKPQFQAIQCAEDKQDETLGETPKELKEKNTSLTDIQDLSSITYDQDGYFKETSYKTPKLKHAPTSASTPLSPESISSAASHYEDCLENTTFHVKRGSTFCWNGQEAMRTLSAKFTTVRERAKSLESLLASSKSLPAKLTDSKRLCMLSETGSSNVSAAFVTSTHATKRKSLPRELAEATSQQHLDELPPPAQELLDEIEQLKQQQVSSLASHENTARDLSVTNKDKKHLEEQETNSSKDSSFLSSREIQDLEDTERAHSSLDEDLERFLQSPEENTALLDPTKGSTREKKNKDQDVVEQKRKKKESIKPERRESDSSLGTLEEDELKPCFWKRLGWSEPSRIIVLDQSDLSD
Procedure: (A) Immunoprecipitation (IP) of FLAG-TEX14 and/or MYC-CEP55 from HEK293T cells, followed by Western blot analysis with the antibodies as shown. Immunoprecipitation of protein G (lanes G) is the control. (B) Yeast two-hybrid analyses using vectors encoding full-length mouse TEX14, MKLP1, CEP55, and positive and negative controls. The relative ratios of TEX14-TEX14, TEX14-MKLP1, and TEX14-CEP55 interactions were determined by using an oxygen-biosensor system. (C) Yeast two-hybrid interactions of mouse and human full-length TEX14 and CEP55. (a) Yeast were stably transformed with vectors and plated for yeast two-hybrid analysis as depicted. SV40 T antigen with p53 and SV40 T antigen with lamin C were used as positive and negative controls, respectively. (b) Interactions between the two-hybrid proteins are evident by colony growth and blue color on selection plates.
as §1
Since both CEP55 and TEX14 interact with MKLP1 (10, 22), it was determined whether CEP55 and TEX14 are components of the intercellular bridge as direct or indirect interactors. The inventors first overexpressed full-length FLAG-TEX14 and MYC-CEP55 constructs in HEK293T cells (FIG. 2A). […] Likewise, when the inventors immunoprecipitate with anti-MYC antibody, they immunoprecipitate both MYC-CEP55 and FLAG-TEX14.

In the case of “ALIX: truncated ALIX region including the GPPX3Y motif, pcDNA3 overexpression vector (ATAPSPVGAGTAAPAPSQTPGSAPPPQAQGPPYPTYPGYPGYCQMPMPMGYNPYAYGQYN)”, the “effect of overexpression on TX-CEP interaction” value [1] is reported as “fails to disrupt”.

“TSG: truncated TSG101 region including the GPPX3Y motif, pcDNA3 overexpression vector (MIVVFGDEPPVFSRPISASYPPYQATGPPNTSYMPGMPGGISPYPSGYPPNPSGYPGCPY)” was tested, and the “effect of overexpression on TX-CEP interaction” value [1] was “fails to disrupt”.

B1: mouse TEX14 amino acids 756 to 815, GPPX3Y-containing fragment (T4) (peptide, UniProt Q7M6U3 756-815, looked up)
chain: EVEELEWAQKELDSQCSSLRDASLKFANAKFQPAVGPPSLAYLPPVMQLPGLKQPENGGT
notes: range 756-815; Yeast two-hybrid GAL4 fusion; also called TEX14-T4
B1: binds [2].

B2: binds [3].

B3: full-length mouse MKLP1 (other, UniProt E9Q5G3 1-953, looked up)
chain: MKSAKAKTVRKPVIKKGSQTNLKDPVGVYCRVRPLSFPDQECCVEVINSTTLQLHTPEGYRLNRNGDYKETQYSFKRVFGTHTTQKELFDVVANPLVDDLIHGKNGLLFTYGVTGSGKTYTMTGSPGSGGLLPRCLNMIFNSIGSFQAKRYVFKSNDRNSMEIQCEVDALLERQKREALPIPKTPSSKRQADPEFADMINVQEFCKAEEVDEDSVYGVFVSYIEIYNNYIYDLLEEVQFDPIKPKLPQSKTLREDKNHNMYVAGCTEVEVKSTEEAFEVFWRGQKKRRIANTHLNRESSRSHSVFSIKLVQAPLDADGDNVLQEKEQITISQLSLVDLAGSERTNRTKAEGNRLREAGNINQSLMTLRTCMEVLRENQTYGTNKMVPYRDSKLTHLFKNYFDGEGKVRMIVCVNPKAEDYEESLQVMRFAEVTQEVEVARPVDKVICGLTPGRRYRNLPRGGPVGDEPLVPEVILQSFPPLPPCKLLDINDEETLPKLADTLEKRHHLRQLMTEDLNKKCLAFKALLKEFDNSLSNKENYVQEKLNEREKVISGQKLEIERLEKKNKTLEYKIEILEKTTTIYEEDKRNLQQELESQNQKLQRQFSDKRRLEARLQGMVTETSMKWQKECERRVAATQLEMQNKLWVKDEKLKQLKAIVTEPKPEKPERPSRERDREKIIPRSVSPSPLPLSSNNIAQISNGQQLMSQPQLHRRSNSCSSISVASCISEWEQKLSPFSTPVNVTSLARHRQQEPGQSKTCIVSDRRRGMCWTEGREMVPTFSSEIGVEEDHCRRNTPIPVRHRRSRSAGSRWVDHKPASNVQTETVMQPHVPHAITVSVANEKALAKCEKYMLTHQELASDGEIQTKVIKGDVYKTRGGGQSVQFTDIETLKQELPTGSRKRRSSTLAPAQPDGTESEWTDVETRCSVAVEMRAGSQLGPGYQHHAQPKRKKP
notes: whole, on cells; Yeast two-hybrid fusion with a GAL4 domain; also called MLKP1
B3: binds [3].
